# Assay results taken from the DeepSol protein solubility set.
# Assay: soluble on expression in E. coli; label from the status in PepcDB or PDB records
row,Sequence,soluble on expression in E. coli
1,MGSDKIHHHHHHMACVRDKPVSGPPTSLSAPHLRISLAFRGGLCPYSRARPEKDYAFKGNFVLRDLIANGQSMRTISLPRGRQRLHAMPTSTGYEVREDEIYDWDGRKRGQTPFTVLQHTISGTGRLRYENRNYRLQENDTLLVLVPHNHRYWLASDERWEYFWISMNGEEALRIHKSILSISGPVFRLKPATIDHLADCSLRLINGAASAGAASAIAYEAAMALYDDVFGSHAFAEKLSAMQPVIDHINANLDRPLPVADLVQISGLSRAHFSRCFAESEGLPPAEFVLQQRLQRAAKLLTKADFLPVKEVAILCGFEDANYFSKVFRRLYGTTPSQFRTTGMYANLRTPARRGVRVSDDET,not soluble
2,MLSFEQSYAPSRNMKLLLVEPSGSYFNDSCCSEPNSPDSGFSSDDSISSDASFAERLTRSKTLPSALRRSRSKQSVKRVRFADSLGLDLENLQYFVKEDLHLQKFNIHFSTPSSSTPPPQLPHFPKQLINQPAPRLVLHNFPYRSEQEYQVKTRDSRVCVAALRASGSSIVGQVNLLNVAFDKVVVVRYTIDGWATQDEIVASYSHRLFDTEDIDAFNFTIAIPVKLSEGKCEFCVQYQVAGAEFWDNNGGDNYIVNVSTKGPSSPFTRCYGASTGLPDAPRGSTRRQQQRRWGRALEESDEETPYVSSAPRRGAHFH,not soluble
3,MSLTDINLKGGKLSIEQLNTIFETIPVEFDFIDENDIIRWSSANRHRLFKRTDADLGKHVLEVHPGHSQNHVKQVLHDMHSGDRDSISIMIKHHGQPVNIAFYALRDDQNKYLGCVEVTQDVSKQQTKGSFWRNIMQVLHKKEGHHHHHH,soluble
4,MSYTAHEAQAALAPQFDAYSKAIEGSDWDTVATFYHPNGVIVQKGKEAFYGKDAIKAELLKFSEATGRSTSSFSNQKYEGAGDYLIITADFSSETEKAGTVKGKFVQIWKKEGDRHLIYHDEFEVNP,not soluble
5,MGSSHHHHHHGGTGENLYFQGGSGLLMRSSSPAATVQATHQRVQSAQERHVRREYASDVNTPRALSVRSSRGGSFAFAPQVQEKYNTMNILVLGAPQVGKSLFINSYRAAITNTTRWPAAPVGISGFYGTTTVAPFPNHARQPTWLCIDTPGSLYTEKHAVLLEKLTEGMPWKTKLKGPNALTLRQIKDISPIAANKAHQCIIVVPATDLIEDDGLINTLLWRNRYRPAGGVADIIFYLKGLISSLRTLMDDASPFVVVTKMDKVGGARNSSACAALVSILGQCVPVNHVYFTAAVENRALLATGRTMVLESSTKQNLVRLHEDICLAVQWRNQVDAM,not soluble
6,MERYAAALEEVADGARQQERHYQLLSALQSLVKELPSSFQQRLSYTTLSDLALALLDGTVFEIVQGLLEIQHLTEKSLYNQRLRLQNEHRVLRQALRQKHQEAQQACRPHNLPVVQAAQQRELEAVEHRIREEQRAMDQKIILELDRKVADQQSTLEKAGVAGFYVTTNPQELMLQMNLLELIRKLQQRGCRAGNAALGLGGPWQSPAAQCDQKGSPVPP,soluble
7,RILDIDPVAQTAVVEPGVVCDALRDAAAEFGLTYGPDPSTHSRCTIGGMVANNACGSHSVAFGTAAENLVDVTLMLSDGREVTVTKDGCDDAEINQKLTDLASKNQDLISKELGRFPRQVSGYGLHYLAHDMAKAMAGTEGTIGIITRLTVKLVPTP,not soluble
8,STGSKQRSQNRSKTPKNQEALRMANVAENSSSDQRQACKKHELYVSFRDLGWQDWIIAPEGYAAYYCEGECAFPLNSYMNATNHAIVQTLVHFINPETVPKPCCAPTQLNAISVLYFDDSSNVILKKYRNMVVRACGCH,soluble
9,MSLDKLNAISIFCKVIETQSFTLAAKQQNISVAMASKLVSQLEEHLKTRLLQRTTRKIMPTEAGMMYYQRCQGILLDLDEADSSITQLTSSLQGNLLISVPRDFGLLFIAPNLPTFMAKHPHLHIEVEFNDKKIDLLSEGYDLALRIGYMEDSSLVSRKIGTTTVHFAASPNYLETNGIPQTPDDLEHHNGLLYKNAMNQVNWVGSRINQTQRFKIQSKVVSNSGFALLNMAKAGLGIANLPKFILGRAFEKGELIEILPEYKQQKLEIHVVYPNRRHLPIKVTGISLNFEGHHHHHH,not soluble
10,MGHHHHHHSHMSNPRSLEEEKYDMSGARLALILCVTKAREGSEEDLDALEHMFRQLRFESTMKRDPTAEQFQEELEKFQQAIDSREDPVSCAFVVLMAHGREGFLKGEDGEMVKLENLFEALNNKNCQALRAKPKVYIIQACRGEQRDPGETVGGDEIVMVIKDSPQTIPTYTDALHVYSTVEGYIAYRHDQKGSCFIQTLVDVFTKRKGHILELLTEVTRRMAEAELVQEGKARKTNPEIQSTLRKRLYLQ,not soluble
11,MGSDKIHHHHHHMHLLFPEVCILCQKPLGEGEEHICAGCFNDFNPFPSVLAGGAALKSTVRAHFGEKAVPAAAWCLYPYRSRGSLHEAMHAMKYGGLFPLGELFGKRLGELICQGGVPVGFDAIVPVPLHHLKRIERTYNQAEALARGMAGLIGLPVATRSLERCVYTGTQTGLGLEARRENMAGAFRPGRERCPARVLLVDDVLTTGATMVSAAKVLKAAGAVEVAFATVALTEKE,not soluble
12,MGSDKIHHHHHHMKVELDVSELAVGMYVVEITQPKNKFQLAEQGWITKQQVIDGFKRKGIEKLLVDSSKRRPQPSEPAKVNQATMDKQAAQLTKTPGLFKQRLSQAKQLFNESKAIQRRLFDDAQAGVPLTLEPVRRVTDQSIEAIFDNPDALACVINIRHKDQYLLEHSVAVSVLMTIFACYLKIDKEIVSELAIGAFLHDVGKIMIPPSILDKPGRLTTEEFEVMKTHANHSIRIIENTPNISPLSLEVARLHHEKLNGKGYPFGVSAEAISRFGRMIAICDIFDALTANRCYKAGYPQVKAFSILRALGENNELDAELVDHFIKCMGVYPVGSLVQLESNRLAIVESHNHQDPIRPKVKPFYSLNPNHFEISANIDLAAMRDDIIVKNVRADDFDLDMDEIIEFLSHEG,not soluble
13,MGHHHHHHSHMQTLPVASALSSHRTGPPPISPSKRKFSMEPGDEDLDCDNDHVSKMSRIFNPHLNKTANGDCRRDPRERSRSPIERAVAPTMSLHGSHLYTSLPSLGLEQPLALTKNSLDASRPAGLSPTLTPGERQQNRPSVITCASAGARNCNLSHCPIAHSGCAAPGPASYRRPPSAATTCDPVVEEHFRRSLGKNYKEPEPAPNSVSITGSVDDHFAKALGDTWLQIKAAKDGASSSPESASRRGQPASPSAHMVSHSHSPSVVS,not soluble
14,MEEMMMNDPSAMVIYEEEVTTAPNLPCSLIQQRSWDEEKPIGYELTNTKCYKTPNGVQKTATIQREQLSTSKDFGEQQIVEMDGEFSIEGTDMHAIPCTSSSMQPSTSSNPSSGEHQPVPLRRMAIKIGQRVLRFKVISAEEAPEAPLDTQDSWINDPKPVTTPKALAGLYRCTNCKTYFGNKEVYQRHIQEVHGDARPFRCFNCGMRFANKTSMTHHLKDHSLLKPMFSCDYCPRIFSKLESKTRHHKMHFTRSTCQTCMRFFTTEDALRHHQSTAHPATFDSGPPPEDLLPNGKSARYSCSYCNLRFHFKKDMLVHERIHTGEKPYSCGYCMKSFAQSQALTAHIRTHTKELPYGCGKCDKRFRDNSCLRKHELAAHTDEPIVRPISVAYSNQVQKQMQRQRENRRKQELLIAERHPYRI,not soluble
15,MIPPSLPAELKAALEQLLQGTQRADAATRAERISLNYRGGGTSAPITSEADALAYAGARMPATYAAVIACLNALTAIRPDFAPATLLDVGAGPGTASWAAAQAFESLQGFTLLDANPALRNLALRLTEARRLSAIDYRLGDAGKALADAPEVTLVIASYLINELGDAARASFADALWRKTSDTLLVVEPGTPAGYQRILQLRDRLIAQGAHVIAPCPHENACPLAAPDWCHFVQRLPRSKLHLQLKSADVPFEDEKFSYVALTRVPLPQRPARVLTQPEQTKAAITAKLCTPAGKLKLAVAARRDKPAYARFRRLDWGDALEAQADLEHHHHHH,not soluble
16,MADFARSLSITTPEEMIEKAKGETAYLPCKFTLSPEDQGPLDIEWLISPADNQKVDQVIILYSGDKIYDDYYPDLKGRVHFTSNDLKSGDASINVTNLQLSDIGTYQCKVKKAPGVANKKIHLVVLVK,soluble
17,MSLKLLAFDTSSTALSVAILEDDRLLADASLTIKKNHSISLMPTIDFLMKSVNLSPQDLDRIVVAEGPGSYTGLRVAVATAKTLAYTLTIDLVGVSSLAALALNSHHEGFIVPIMDARRNHVYVGFYENGRAAKADQYASLNAVLEQLKGRKQVTFVGEVTAFRQEINQTFPEAKVLEVLPSAFKIGQVGQKLTPVDVHAFVPKYLKKVEAEENWLKTHEDSGLSYVKRVEGHHHHHH,not soluble
18,MKKVLLVNGPNLNRLGVREVNVYGKGTLATLEADMKQEAEAMGVELECFQSNHEGAIIDRIHEAEDIYEGIILNPGAFTHYSYAIRDAIASISIPVIEVHISNIHQRESFRHESVTAAVCAGQIVGFGFYGYKLALFALMEKLREA,not soluble
19,MSLILFFYFMVLSEACMRTVAPEDVYISSTFPFEDFTTEAVVTTDSSTISQLTTETTMETVETHIFYVTCKNRYPISNRNCLINRHTDDFFCFILPVDACMRTVPPEDVYISITLPYEDFTTESNEIAVTTDSSTVPQLVTETTEIPTATTTPGWSSKTELHWKISKILNTK,not soluble
20,MKISMEGSSVINLEQLSLYQDSLGYLGQQMNFPEKMTFHPKIFEETISKSHPGYEDLLAYREVMMNYTLSEIKAIYTDTFDFSKKHPLYMTFNKFDTQKERGQMLAKLKVLYEMFGLKMVDNELSDFLPLMLQFLQVADFKNDSRAQENLQLVIMIIEDGTYEMANTLAENNNPYAYVVSALRKTLKACIVPLKEVENHA,not soluble
21,RTVTLTRERIRLEDRAVKMSVKTVGKEKVGVLDIPGFYVGLTDDVKVQLQKLEKQNVSSVIIDLRSNGGGALTEAVSLSGLFIPSGPIVQVRDNNGKVREDSDTDGQVFYKGPLVVLVDRFSASASEIFAAAMQDYGRALVVGEPTFGKGTVQQYRSLNRIYDQMLRPEWPALGSVQYTIQKFYRVNGGSTQRKGVTPDIIMPTGNEETETGEKFEDNALPWDSIDAATYVKSGDLTAFEPELLKEHNARIAKDPEFQNIMKDIARFNAMKDKRNIVSLNYAVREKENNEDDATRLARLNERFKREGKPELKKLDDLPKDYQEPDPYLDETVNIALDLAKLEKARPAEQPA,not soluble
22,QRSTFGTKHMVFRTDQLIDGIERNVRITSEEVNAALPVPLLDRQDPGAILISGSSYTEPSEALQTMREAMTQEKFSGSVEIPLGIVRALLDLGFTDEAASWLEDLVPRLGNEWRHQWYSGVTSLLLDDYLTAQQHFNEVYNILPGESAPKLARAAVCEMLLQEKGLESTALLDPAVTVAAADIKGEGMSNIWRELTSDPATLRFKAIYLYALVWRTNPTTVSSAFGLARQLAAENQIDLAVSTLDRVPQNSTHRRMAELTAILHLLGDLSEARLRRAARRLEAIPTNEPRFLQIQIAIMNAALQWLRTGGEAANDPIFEYPFTQRGLRNGLSATLRQLARSAPSSHRYALVDVANQVRPMTWF,not soluble
23,MSIHICQPVSPKENPNGILNNSRPTTALSGLPELHTVGQGADLEIWTKDSHALLFLLKGEPAVFVGPESGNSQLSGDNVVLLAANLRIRLRAEKGPATLICFYFHPTLHLCLGICPSSGNKKECRRRTEIVHISSLQRETMVNSWLHSVMGYLSEMPTSSEIFELKLRELFCIFRSRYEKPLLDNFLSSFHCQNKGFRAFVFRHHLECRSAEELAAKMNLSLSSFKRHFNQEFSCPPLKWMHEERAKHVYTDLADPSLSLKAIAEKNLFSSVSYLCAFCRKMLGNTPLQLRKAMGQQPK,not soluble
24,MAPKDNTWYTGAKLGFSQYHDTGFINNNGPTHENQLGAGAFGGYQVNPYVGFEMGYDFLGRMPYKGSVENGAYKAQGVQLTAKLGYPITDDLDIYTRLGGMVFRADTKSNVYGKNHDTGVSPVFAGGVEYAITPEIATRLEYQFTNNIGDAHTIGTRPDNGMLSLGVSYRFGQGEAA,soluble
